Read-outs that look alike come from different tables or passages of the source. Blank lines part the entries; values can stand above or below the molecule they belong to. *1 amine or outer side, *2 acyl side, *3 side chain or, on linkers, in order; H or OH if unused. Where no end group is shown, it is not given here. [ ]: non-standard residue; d: D form. T1 = linker NH2CH2CH2N(SO2Me)CH2COOH, CS(=O)(=O)N(CCN[*:1])CC(=O)[*:2]; T3 = linker N(CH2)3CHCH2OCH2COOH; Nle = CCCC[C@H](N)C(=O)O
Legend:
[1] = system: peripheral blood mononuclear cells (PBMC); test: Cell death in normal peripheral blood mononuclear cells, annexin V positivity and FACS; format: cell-based, human; conditions: 6.25-50 ug/ml, six hours
Experimental: Peripheral blood mononuclear cells (PBMC) were isolated from a normal donor. Cells were treated with 6.25, 12.5, 25 and 50 ug/ml for six hours and cell death was measured by annexin V positivity and FACS analysis.
CD34^+ hematopoietic progenitor cells were isolated from peripheral blood and treated for 2 hrs with integrin interaction inhibitors (12.5 and 50 μg/ml) and then plated in a methylcellulose media supplemented with growth factors supporting myeloid and erythroid colonies. Colonies were counted on day 12 post-plating. […] In addition, we evaluated the toxicity of integrin interaction inhibitors in normal peripheral blood mononuclear cells (PBMC).

H929 myeloma cells = format: cell-based, human; conditions: for bioactivity relative to parent/comparator peptide: SAR statements; for IC50: read-out: IC50
Experimental: H929 cells were treated for 24 hours with varying concentrations of peptide. Cell death was measured by Topro-3 staining and FACS analysis. The IC50 values were obtained from linear regression analysis and an average value was obtained from 3 independent experiments.
Table 4 legend: Structure activity relationship in H929 myeloma cells of cyclic INTEGRIN INTERACTION INHIBITORS derivatives. The minimal bioactive core sequence of INTEGRIN INTERACTION INHIBITORS WSVVM (SEQ ID NO:33) was cyclized using 2 novel reduced amide bond beta turn promoters and KLKLK (SEQ ID NO:34) as the non-recognition sequence. H929 cells were treated with varying concentrations of the indicated peptide for 24 h. Cell viability was determined using Topro-3 staining and FACS analysis after drug treatment. IC50 values were generated from linear regressions generated from the dose response curves (n=mean of 3 independent experiments).
A colony forming assay was used to compare induced cell death in H929 multiple myeloma cells. Cells were treated with integrin interaction inhibitors, shown in FIG. 5 and Table 4, and cell death was measured following 24 hour peptide treatment by TOPRO-3 staining and FACS analysis.

[2] = molecular target: recombinant human CD44 ectodomain (amino acids 20-178, His-tagged, refolded from E. coli) (human) (UniProt P16070); test: SPR, Biacore T100, recombinant CD44 ectodomain over biotin-HYD1 sensor chip, 1:1 binding model
[3] = molecular target: Syndecan-1 (Homo sapiens (Human)) (UniProt P18827); test: biotin-HYD1 NeutrAvidin pull-down of U266 membranes, LC-MS/MS
[4] = molecular target: Intercellular adhesion molecule 1 (ICAM1) (Homo sapiens (Human)) (UniProt P05362); test: as above
CD59 [5] = molecular target: CD59 (UniProt P13987); test: as above
[6] = molecular target: Intercellular adhesion molecule 3 (ICAM3) (Homo sapiens (Human)) (UniProt P32942); test: as above
[7] = molecular target: CD44 (endogenous, of NCI-H929, U266, U937 and HL-60 cells) (human) (UniProt P16070); test: as above
[8] = molecular target: Basigin (Homo sapiens (Human)) (UniProt P35613); test: as above
[9] = molecular target: recombinant human CD44 ectodomain (amino acids 20-178, His-tagged, refolded from E. coli) (human) (UniProt P16070); test: SPR, recombinant CD44 ectodomain on biotin conjugated HYD1, two-state binding model
CD59 [10] = molecular target: CD59 (UniProt P13987); test: LC-MS/MS of the biotin-HYD1 binding complex pulled down from NCI-H929 membranes (row CD59, column NCI-H929) [panel A.]
[11] = molecular target: Syndecan-1 (Homo sapiens (Human)) (UniProt P18827); test: biotin-HYD1 NeutrAvidin pull-down of NCI-H929 membranes, LC-MS/MS
[12] = molecular target: α4 integrin (Homo sapiens (Human)) (UniProt P13612); test: as above
CD59 [13] = molecular target: CD59 (UniProt P13987); test: as above
β1 integrin = β1 integrin (UniProt P05556); test: as above
[14] = molecular target: Neural cell adhesion molecule 1 (NCAM1) (Homo sapiens (Human)) (UniProt P13591); test: as above
[15] = molecular target: CD44 (endogenous, of NCI-H929, U266, U937 and HL-60 cells) (human) (UniProt P16070); test: as above
[16] = molecular target: Basigin (Homo sapiens (Human)) (UniProt P35613); test: as above

Chain of CD59 (P13987 26-102 limits assumed): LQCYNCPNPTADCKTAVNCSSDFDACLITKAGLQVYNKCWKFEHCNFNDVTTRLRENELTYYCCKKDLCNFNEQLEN
Chain of CD44 (endogenous, of NCI-H929, U266, U937 and HL-60 cells) (human) (P16070 21-742 limits assumed): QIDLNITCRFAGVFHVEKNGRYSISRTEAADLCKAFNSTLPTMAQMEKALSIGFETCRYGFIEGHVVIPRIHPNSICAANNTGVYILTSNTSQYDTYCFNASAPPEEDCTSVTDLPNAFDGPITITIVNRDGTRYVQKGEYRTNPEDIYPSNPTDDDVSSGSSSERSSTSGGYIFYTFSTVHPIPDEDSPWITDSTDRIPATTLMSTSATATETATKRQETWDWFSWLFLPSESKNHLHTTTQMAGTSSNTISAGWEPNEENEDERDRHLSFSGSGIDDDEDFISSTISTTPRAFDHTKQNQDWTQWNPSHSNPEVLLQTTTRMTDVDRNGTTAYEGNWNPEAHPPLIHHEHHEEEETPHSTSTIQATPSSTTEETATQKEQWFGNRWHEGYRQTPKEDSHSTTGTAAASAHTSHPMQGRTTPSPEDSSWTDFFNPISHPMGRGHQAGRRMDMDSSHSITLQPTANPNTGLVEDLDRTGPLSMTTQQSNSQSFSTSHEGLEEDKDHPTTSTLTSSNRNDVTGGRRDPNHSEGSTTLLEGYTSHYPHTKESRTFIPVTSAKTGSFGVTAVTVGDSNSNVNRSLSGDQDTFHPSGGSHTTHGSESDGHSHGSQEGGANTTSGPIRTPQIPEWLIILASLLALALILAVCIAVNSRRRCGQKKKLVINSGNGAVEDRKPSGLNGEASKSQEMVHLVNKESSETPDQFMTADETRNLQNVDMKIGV
Chain of Basigin (Homo sapiens (Human)) (P35613 other isoform, or with tags, fused parts or gaps limits assumed): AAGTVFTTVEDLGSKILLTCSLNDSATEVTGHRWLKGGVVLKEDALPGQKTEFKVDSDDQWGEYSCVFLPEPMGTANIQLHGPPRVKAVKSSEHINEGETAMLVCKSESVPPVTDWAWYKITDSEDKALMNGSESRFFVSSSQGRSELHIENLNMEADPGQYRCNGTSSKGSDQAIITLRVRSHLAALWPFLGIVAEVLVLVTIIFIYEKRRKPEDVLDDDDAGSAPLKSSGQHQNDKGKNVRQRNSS
Chain of recombinant human CD44 ectodomain (amino acids 20-178, His-tagged, refolded from E. coli) (human) (P16070 20-178): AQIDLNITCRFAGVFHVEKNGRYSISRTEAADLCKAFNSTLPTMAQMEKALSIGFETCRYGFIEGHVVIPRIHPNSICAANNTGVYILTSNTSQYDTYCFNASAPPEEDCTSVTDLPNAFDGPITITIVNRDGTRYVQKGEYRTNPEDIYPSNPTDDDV
Chain of Syndecan-1 (Homo sapiens (Human)) (P18827 23-310 L136Q/G259V limits assumed): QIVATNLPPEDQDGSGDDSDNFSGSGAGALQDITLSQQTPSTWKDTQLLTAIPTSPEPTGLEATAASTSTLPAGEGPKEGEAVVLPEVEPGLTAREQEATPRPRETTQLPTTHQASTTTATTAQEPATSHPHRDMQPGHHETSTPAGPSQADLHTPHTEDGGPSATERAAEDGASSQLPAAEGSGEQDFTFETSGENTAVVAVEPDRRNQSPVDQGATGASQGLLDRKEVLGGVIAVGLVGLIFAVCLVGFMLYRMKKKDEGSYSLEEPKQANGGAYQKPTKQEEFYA
Chain of β1 integrin (P05556 21-798): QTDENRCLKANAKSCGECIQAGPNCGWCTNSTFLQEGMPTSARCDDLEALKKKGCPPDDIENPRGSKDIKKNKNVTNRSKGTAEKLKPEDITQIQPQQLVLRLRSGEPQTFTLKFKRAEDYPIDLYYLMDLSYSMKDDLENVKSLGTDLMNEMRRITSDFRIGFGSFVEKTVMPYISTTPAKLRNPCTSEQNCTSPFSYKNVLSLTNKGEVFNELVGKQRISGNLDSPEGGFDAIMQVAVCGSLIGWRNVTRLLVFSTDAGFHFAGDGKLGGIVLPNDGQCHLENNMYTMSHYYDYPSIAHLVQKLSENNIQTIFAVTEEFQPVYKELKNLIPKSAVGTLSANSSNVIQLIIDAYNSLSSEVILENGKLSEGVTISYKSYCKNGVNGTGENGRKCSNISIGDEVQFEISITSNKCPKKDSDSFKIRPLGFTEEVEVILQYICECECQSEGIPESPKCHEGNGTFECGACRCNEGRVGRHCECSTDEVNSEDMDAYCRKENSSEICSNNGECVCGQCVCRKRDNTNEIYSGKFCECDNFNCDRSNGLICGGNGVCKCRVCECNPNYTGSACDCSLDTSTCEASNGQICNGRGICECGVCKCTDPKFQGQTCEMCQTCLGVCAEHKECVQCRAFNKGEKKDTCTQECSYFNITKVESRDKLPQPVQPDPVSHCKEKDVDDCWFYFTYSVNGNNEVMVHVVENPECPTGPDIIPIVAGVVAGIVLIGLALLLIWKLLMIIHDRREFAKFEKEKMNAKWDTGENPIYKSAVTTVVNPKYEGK
Chain of Neural cell adhesion molecule 1 (NCAM1) (Homo sapiens (Human)) (P13591 other isoform, or with tags, fused parts or gaps limits assumed): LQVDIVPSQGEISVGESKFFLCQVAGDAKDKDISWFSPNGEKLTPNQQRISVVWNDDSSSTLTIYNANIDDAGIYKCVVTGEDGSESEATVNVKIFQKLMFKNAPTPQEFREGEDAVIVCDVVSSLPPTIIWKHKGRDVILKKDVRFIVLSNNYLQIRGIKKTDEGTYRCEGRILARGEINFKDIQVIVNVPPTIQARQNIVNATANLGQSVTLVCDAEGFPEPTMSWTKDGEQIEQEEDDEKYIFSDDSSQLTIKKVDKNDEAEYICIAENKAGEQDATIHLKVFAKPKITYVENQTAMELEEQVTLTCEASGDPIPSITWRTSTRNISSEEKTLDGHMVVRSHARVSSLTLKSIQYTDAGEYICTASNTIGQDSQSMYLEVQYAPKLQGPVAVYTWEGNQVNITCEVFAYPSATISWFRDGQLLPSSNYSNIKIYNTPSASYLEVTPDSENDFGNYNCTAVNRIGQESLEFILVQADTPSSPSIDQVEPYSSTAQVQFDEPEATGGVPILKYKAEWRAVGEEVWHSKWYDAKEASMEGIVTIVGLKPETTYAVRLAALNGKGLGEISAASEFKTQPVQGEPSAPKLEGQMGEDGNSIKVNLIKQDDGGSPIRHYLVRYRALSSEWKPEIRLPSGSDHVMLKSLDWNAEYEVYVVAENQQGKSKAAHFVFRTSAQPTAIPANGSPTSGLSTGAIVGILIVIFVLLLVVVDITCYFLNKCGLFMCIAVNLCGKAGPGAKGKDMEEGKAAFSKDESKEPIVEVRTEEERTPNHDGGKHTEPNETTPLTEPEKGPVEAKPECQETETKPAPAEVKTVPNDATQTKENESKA
Chain of Intercellular adhesion molecule 1 (ICAM1) (Homo sapiens (Human)) (P05362 28-532 limits assumed): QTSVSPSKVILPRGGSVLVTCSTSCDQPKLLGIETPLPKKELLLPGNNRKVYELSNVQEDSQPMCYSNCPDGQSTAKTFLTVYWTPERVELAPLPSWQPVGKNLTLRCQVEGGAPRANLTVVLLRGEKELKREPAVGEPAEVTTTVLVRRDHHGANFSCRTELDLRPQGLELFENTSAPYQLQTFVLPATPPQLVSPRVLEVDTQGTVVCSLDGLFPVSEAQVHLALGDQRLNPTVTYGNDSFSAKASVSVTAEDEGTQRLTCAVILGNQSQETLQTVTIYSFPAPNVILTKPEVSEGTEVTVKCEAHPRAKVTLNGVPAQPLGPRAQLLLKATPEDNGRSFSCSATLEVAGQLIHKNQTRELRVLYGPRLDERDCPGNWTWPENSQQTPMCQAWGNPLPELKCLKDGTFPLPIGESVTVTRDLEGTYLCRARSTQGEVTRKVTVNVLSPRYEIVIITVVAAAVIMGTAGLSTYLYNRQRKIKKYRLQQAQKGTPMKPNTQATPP
Chain of Intercellular adhesion molecule 3 (ICAM3) (Homo sapiens (Human)) (P32942 30-547 limits assumed): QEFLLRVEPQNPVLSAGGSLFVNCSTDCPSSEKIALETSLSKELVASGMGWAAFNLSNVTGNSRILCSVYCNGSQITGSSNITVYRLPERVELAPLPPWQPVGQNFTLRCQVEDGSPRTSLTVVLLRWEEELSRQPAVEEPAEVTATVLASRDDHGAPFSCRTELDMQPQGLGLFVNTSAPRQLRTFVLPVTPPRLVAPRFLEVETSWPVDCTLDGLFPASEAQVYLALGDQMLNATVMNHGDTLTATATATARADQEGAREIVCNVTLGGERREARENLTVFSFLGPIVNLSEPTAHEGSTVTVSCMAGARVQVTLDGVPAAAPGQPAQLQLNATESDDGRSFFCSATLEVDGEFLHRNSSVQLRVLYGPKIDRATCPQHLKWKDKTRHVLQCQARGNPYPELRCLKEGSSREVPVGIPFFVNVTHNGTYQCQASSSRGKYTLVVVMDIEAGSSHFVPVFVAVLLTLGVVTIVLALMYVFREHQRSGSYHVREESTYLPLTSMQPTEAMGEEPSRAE

Molecule: CC[C@@H](C)[C@@H](NC(=O)[C@H](N)CCCCN)C(=O)N[C@H](CCCCN)C(=O)N[C@H](CCSC)C(=O)N[C@@H](C(=O)N[C@@H](C(=O)N[C@H](CO)C(=O)N[C@H](Cc1c[nH]c2ccccc12)C(=O)N[C@H](CCCCN)C(=O)NCC(=O)O)[C@H](C)CC)C(C)C [HYD1]
cell death in PBMC [1]: more potent in MM cells (H929) compared to normal hematopoietic cells

Molecule: CSCC[C@@H]1NC(=O)CN(S(C)(=O)=O)CCNC(=O)[C@H](CCCCN)NC(=O)[C@H](CC(C)C)NC(=O)[C@H](CCCCN)NC(=O)[C@H](CC(C)C)NC(=O)[C@H](CCCCN)NC(=O)CN(S(C)(=O)=O)CCNC(=O)[C@H](Cc2c[nH]c3ccccc23)NC(=O)[C@H](CO)NC(=O)[C@H](C)NC(=O)[C@H](C(C)C)NC1=O [Peptide 5, KLKLKT1MVASWT1]
bioactivity relative to parent/comparator peptide (H929 myeloma cells; H929 cells): decrease in activity

IC50 (H929 myeloma cells; H929 myeloma cells, 24 h treatment, Topro-3 staining and FACS, mean of at least 3 independent experiments): 25 µM
IC50 (H929 myeloma cells; Table 8, cyclic III peptide analogs, H929 cells): 13 µM
Molecule: KLKQKT1N*VVAWT3 [17] (cyclo(KLKQK[T1][Nle]VVAW[T3])) [Peptide 17]

Molecule: CSCC[C@@H]1NC(=O)CN(S(C)(=O)=O)CCNC(=O)[C@H](CCCCN)NC(=O)[C@H](CC(C)C)NC(=O)[C@H](CCCCN)NC(=O)[C@H](CC(C)C)NC(=O)[C@H](CCCCN)NC(=O)CN(S(C)(=O)=O)CCNC(=O)[C@H](Cc2c[nH]c3ccccc23)NC(=O)[C@H](C)NC(=O)[C@H](C(C)C)NC(=O)[C@H](C(C)C)NC1=O [Peptide 4, KLKLKT1MVVAWT1]
fold more potent than linear HYD1 (H929 myeloma cells; H929 cells, reference of the 10- and 15-fold statements not expressly named): approximately 10 fold
bioactivity relative to parent/comparator peptide (H929 myeloma cells; H929 cells): significantly improved the bioactivity
bioactivity relative to parent/comparator peptide (H929 myeloma cells; H929 cells, listed as L-cINTEGRIN INTERACTION INHIBITORSa7): increase in activity

Kd [2]: 0.026 µM
Peptide match (peptide match hits) [3]: 6
Peptide match (peptide match hits) [4]: 6
Peptide match (peptide match hits) (CD59 [5]): 2
Peptide match (peptide match hits) [6]: 3
Peptide match (peptide match hits) [7]: 5
Peptide match (peptide match hits) [8]: 8
Kd [9]: 0.0244 µM
# peptides identified (CD59 [10]): 3 peptides
Peptide match (peptide match hits) [11]: 5
Peptide match (peptide match hits) [12]: 3
Peptide match (peptide match hits) (CD59 [13]): 2
Peptide match (peptide match hits) (β1 integrin): 2
Peptide match (peptide match hits) [14]: 4
Peptide match (peptide match hits) [15]: 7
Peptide match (peptide match hits) [16]: 7
Molecule: [dK][dI][dK][dM][dV][dI][dS][dW][dK]G (also: biotin conjugated, site not given here) [biotin-HYD1 (biotin conjugated HYD1, all D-amino acid peptide kikmviswkg)]
